The values below come from article PMC10504559.

Data set [1] deals with T1, RGA (Arabidopsis thaliana, UniProt Q9SLH3 1-587).
T1 sequence: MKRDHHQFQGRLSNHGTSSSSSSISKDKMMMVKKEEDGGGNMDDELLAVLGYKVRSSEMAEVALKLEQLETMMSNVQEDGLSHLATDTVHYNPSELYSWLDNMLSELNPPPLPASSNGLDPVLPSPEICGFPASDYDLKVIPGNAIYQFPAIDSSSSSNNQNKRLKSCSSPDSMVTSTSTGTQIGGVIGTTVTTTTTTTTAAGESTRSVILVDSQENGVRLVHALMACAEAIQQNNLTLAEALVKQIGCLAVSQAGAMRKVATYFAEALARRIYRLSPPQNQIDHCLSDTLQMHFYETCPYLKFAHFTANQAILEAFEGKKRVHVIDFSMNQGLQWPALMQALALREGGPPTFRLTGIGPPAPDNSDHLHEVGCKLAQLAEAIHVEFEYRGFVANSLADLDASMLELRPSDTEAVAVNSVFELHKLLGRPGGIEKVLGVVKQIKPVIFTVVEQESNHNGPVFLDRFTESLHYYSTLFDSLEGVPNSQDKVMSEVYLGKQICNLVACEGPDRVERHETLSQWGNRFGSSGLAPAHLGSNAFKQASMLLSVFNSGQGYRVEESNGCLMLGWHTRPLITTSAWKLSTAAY
Kind of data set: EMSA. (In general: Mobility shift assays separate free from complexed probe on a gel.)

The target in data set [2] is T2, ABI4 (Arabidopsis thaliana, UniProt A0MES8 1-328). Kind of data set: EMSA.
T2 sequence (A0MES8 whole entry): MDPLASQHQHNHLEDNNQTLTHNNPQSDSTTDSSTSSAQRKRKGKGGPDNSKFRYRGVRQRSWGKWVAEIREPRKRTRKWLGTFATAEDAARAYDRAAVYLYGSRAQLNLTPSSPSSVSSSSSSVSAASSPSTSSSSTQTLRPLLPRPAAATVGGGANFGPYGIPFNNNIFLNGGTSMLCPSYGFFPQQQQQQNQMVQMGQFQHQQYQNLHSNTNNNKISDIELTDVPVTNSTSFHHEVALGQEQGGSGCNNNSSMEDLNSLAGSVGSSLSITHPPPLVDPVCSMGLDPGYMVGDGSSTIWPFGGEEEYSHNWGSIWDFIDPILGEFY
The target of data set [3] is T2, ABI4. Kind of data set: competition.
The target in data set [4] is T3, HY5 (Arabidopsis thaliana, UniProt O24646 1-168).
T3 sequence: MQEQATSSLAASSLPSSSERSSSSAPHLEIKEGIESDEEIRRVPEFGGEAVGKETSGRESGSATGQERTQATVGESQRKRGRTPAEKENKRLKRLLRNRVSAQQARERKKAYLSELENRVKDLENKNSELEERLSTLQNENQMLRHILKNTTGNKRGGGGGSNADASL
Kind of data set: EMSA.

B1: EXP2 promoter probe (dsDNA)
DNA 1: GCGGATATGTAATACGTCCACGTGGCATAAAAGTA
DNA 2: TACTTTTATGCCACGTGGACGTATTACATATCCGC
On to B1, for which the values for the binding result in data set [1] and in data set [2] were “no binding” and “binds”, respectively.

B2: GA2ox7 promoter CCAC probe (dsDNA)
DNA 1: AAACACCCGACCCAATCTAAAAATCCCACCATAAGCCACCCAATTTATTCTTCTTCTTCA
DNA 2: TGAAGAAGAAGAATAAATTGGGTGGCTTATGGTGGGATTTTTAGATTGGGTCGGGTGTTT
As to B2, the binding result in data set [2] is “binds”.

B3: GA2ox7 promoter CCAC mutant (m) (dsDNA)
DNA 1: AAACACCCGACCCAATCTAAAAATCTATACATAAGTATACCAATTTATTCTTCTTCTTCA
DNA 2: TGAAGAAGAAGAATAAATTGGTATACTTATGTATAGATTTTTAGATTGGGTCGGGTGTTT
On to B3, for which, in data set [3], the binding result was “no binding”.

B4: GA2ox7 promoter G-box probe (dsDNA)
DNA 1: TTAGGACACAAACACGTGGTTTTTCATAGCATTGAGAAATTATAATAAAT
DNA 2: ATTTATTATAATTTCTCAATGCTATGAAAAACCACGTGTTTGTGTCCTAA
Regarding B4, the binding result in data set [4] is “binds”.
